This note sets out measurements from patent US8278037B2, “N-acetylgalactosamine transferases and nucleic acids encoding the same” (National Institute of Advanced Industrial Science and …, priority 2002, dated 2012).

One test has as its target T1, NGalNAc-T1 (Homo sapiens, UniProt Q76KP1).
T1 sequence (Q76KP1 62-1039): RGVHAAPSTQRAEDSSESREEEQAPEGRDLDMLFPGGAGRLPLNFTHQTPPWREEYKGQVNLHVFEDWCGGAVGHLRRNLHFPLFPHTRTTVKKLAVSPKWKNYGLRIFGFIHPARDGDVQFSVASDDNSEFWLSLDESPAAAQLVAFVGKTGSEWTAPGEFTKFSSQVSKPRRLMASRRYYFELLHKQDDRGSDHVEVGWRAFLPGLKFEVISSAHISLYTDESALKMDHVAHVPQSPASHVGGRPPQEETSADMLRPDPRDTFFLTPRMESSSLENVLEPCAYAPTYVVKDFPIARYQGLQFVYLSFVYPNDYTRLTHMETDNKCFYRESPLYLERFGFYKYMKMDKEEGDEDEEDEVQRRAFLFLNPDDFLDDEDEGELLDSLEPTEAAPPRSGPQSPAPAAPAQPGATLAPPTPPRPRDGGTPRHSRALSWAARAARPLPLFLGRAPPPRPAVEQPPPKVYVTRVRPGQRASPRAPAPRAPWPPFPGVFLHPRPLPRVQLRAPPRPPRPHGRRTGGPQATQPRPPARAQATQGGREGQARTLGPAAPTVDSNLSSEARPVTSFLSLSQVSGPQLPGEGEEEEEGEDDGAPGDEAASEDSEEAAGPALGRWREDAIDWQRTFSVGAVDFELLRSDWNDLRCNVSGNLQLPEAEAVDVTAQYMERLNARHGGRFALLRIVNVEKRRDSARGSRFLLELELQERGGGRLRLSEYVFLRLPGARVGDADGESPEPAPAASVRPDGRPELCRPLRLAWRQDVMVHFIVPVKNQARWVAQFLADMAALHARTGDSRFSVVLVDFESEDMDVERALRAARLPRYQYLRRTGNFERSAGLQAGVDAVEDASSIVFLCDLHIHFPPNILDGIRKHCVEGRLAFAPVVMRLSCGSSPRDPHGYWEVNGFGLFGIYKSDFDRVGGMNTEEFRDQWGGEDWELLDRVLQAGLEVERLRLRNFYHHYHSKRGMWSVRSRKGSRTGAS
Description: Study of optimum pH in enzymatic activity. Type of test: biochemical. The settings on record: for (A) − (B): blank 263.21 subtracted. The text has this:
As described above, it was explained that NGalNAc-T1 and NGalNAc-T2 are glycosyl transferases which transfer GalNAc to GlcNAc. Thereat, the optimum pH of both enzymes was studied. The buffer solutions used are MES (pH 5.5, 6.0, 6.26, 6.5, 6.75), HEPES (pH 6.75, 7.0, 7.4).
In addition, the value (263.21 dpm) of MES (pH 6.75) was adopted as a blank value in the case of a non-enzyme. Further, when pH of HEPES buffer was 7.4 for NGalNAc-T1 and 6.75 for NGalNAc-T2, the highest value was shown. […] Hereinafter, MES (pH 6.5) was used in each of experiments.

In the next test the test system is glycodelin in CHO cells. In words: N-glycan structures on glycodelin from NGalNAc-T gene transfected CHO cells, WFA lectin blotting. The class given is cell-based. The settings on record: gene co-transfected with glycodelin gene in CHO cells, 48 hr culture medium. The text has this: As shown above, both NGalNAc-T1 and -T2 could synthesize LacdiNAc structures on mono- and oligosaccharide acceptors. Actually, it is known that the LacdiNAc structures exist in N-glycans on some glycoproteins. Therefore we examined the ability of NGalNAc-T1 to construct LacdiNAc on glycodelin, which is one of major glycoproteins carrying LacdiNAc structures, in vivo. CHO cells were employed for this purpose, because glycodelin produced in CHO cells is devoid of any of the LacdiNAc-based chains.
The glycodelin expression vector was transfected into CHO cells expressing NGalNAc-T1 or -T2 gene and the culture medium was collected from 48 hr-culture medium. Glycodelin was harvested with WFA affinity column from the culture medium. The harvested glycodelin was applied to SDS-PAGE and used for lectin blotting with WFA.

Test [1] concerns asialo/agalacto-fetal calf fetuin. In words: LacdiNAc synthesizing activity toward asialo/agalacto-fetal calf fetuin, WFA lectin blot. The settings on record: 37° C. for 16 hr, HRP conjugated WFA lectin detection. Type of test: biochemical. As for the experimental part: Fetal calf fetuin (FCF), neuraminidase, β1-4 galactosidase and glycopeptidase F were purchased from Sigma, Nacalai Tesque (Kyoto, Japan), Calbiochem and Takara, respectively. Asialo/agalacto-FCF was prepared from 200 μg of FCF by incubating with 4 μU of neuraminidase and 12 μU of β1,4-galactosidase at 37° C. for 16 hr. The transfer of GalNAc by GalNAc-T2 to glycoprotein was performed in 20 μl of a standard reaction mixture containing 50 μg of asialo/agalacto-FCF produced by glycosidase treatment. After the incubation at 37° C. for 16 hr, each 5 μl of the reaction mixture was digested with glycopeptidase F (GPF) according to manufacture's instruction. For detection of transferred GalNAc, horseradish peroxidase (HRP) conjugated lectin, Wisteria floribunda agglutinin (WFA) (EY Laboratories, San Mateo, Calif.), was used. A 1 μl of reaction mixtures subjected to 12.5% SDS-PAGE were transferred to nitrocellulose membrane (Schleicher & Schuell, Keene, N.H.) and stained with 0.1% HRP conjugated WFA lectin. The signals were detected using enhanced chemiluminescence (ECL) and Hyperfilm ECL (Amersham Biosciences).

B1: NGalNAc-T1: human enzyme (SEQ ID NO: 1) transferring N-acetylgalactosamine to N-acetylglucosamine via β1-4 linkage; tested as FLAG-tagged amino acids 62-1039 (protein, listed as Homo sapiens)
chain: T1 sequence (Q76KP1 62-1039)
modifications: FLAG tag
With B1, in the test with NGalNAc-T1 (HEPES buffer), the “pH at which the highest value was shown” value stood at 7.4. Further, the “Incorporation of radioactivity (A)” value was 1685.06 dpm with NGalNAc-T1 (HEPES buffer (pH 6.75)); 1138.38 dpm in the test with NGalNAc-T1 (HEPES buffer (pH 7.0)); 2587.48 dpm with NGalNAc-T1 (HEPES buffer (pH 7.4)); 339.76 dpm with NGalNAc-T1 (MES buffer (pH 5.5)); 321.04 dpm in the test with NGalNAc-T1 (MES buffer (pH 6.0)); 636.34 dpm with NGalNAc-T1 (MES buffer (pH 6.26)). Moreover, the “Incorporation of radioactivity (A)” value in the test with NGalNAc-T1 (MES buffer (pH 6.5)) came to 1767.72 dpm; with NGalNAc-T1 (MES buffer (pH 6.75)), 923.92 dpm. The “(A) − (B)” value was determined as 1421.85 dpm with NGalNAc-T1 (HEPES buffer (pH 6.75)); 875.17 dpm with NGalNAc-T1 (HEPES buffer (pH 7.0)); 2324.27 dpm in the test with NGalNAc-T1 (HEPES buffer (pH 7.4)); 76.55 dpm with NGalNAc-T1 (MES buffer (pH 5.5)); 57.83 dpm in the test with NGalNAc-T1 (MES buffer (pH 6.0)); 373.13 dpm in the test with NGalNAc-T1 (MES buffer (pH 6.26)). Also, the results for the “(A) − (B)” value in the test with NGalNAc-T1 (MES buffer (pH 6.5)) and with NGalNAc-T1 (MES buffer (pH 6.75)) were 1504.51 dpm and 660.71 dpm, respectively. The “pH at which the activity tends to be higher” value with NGalNAc-T1 (MES buffer) is 6.5. Further, the “non-reducing terminal GalNAc on glycodelin” value in the test with glycodelin in CHO cells is “non-reducing terminal GalNAc is detected”. Also, the “transfer of GalNAc to glycoprotein asialo/agalacto-FCF” value in test [1] is on record as “same as NGalNAc-T2”.
